Source: the supplement of paper PMC7877785
± gives the uncertainty stated by the source.

Assay: self-splicing fitness, log relative to wild type (ln ratio); higher = more splicing; Tetrahymena group I intron in knt gene, E. coli kanamycin selection, DiMSum; sequences stand for … in CUCUCU…GGAGGGAAAAGUUAUCAGGCAUGCACCUGGUAGCUAGUCUUUAAACCAAUAGAUUGCAUCGGUUUAAAAGGCAAGACCGUCAAAUUGCGGGAAAGGGGUCAACAGCCGUUCAGUACCAAGUCUCAGGGGAAACUUUGAGAUGGCCUUGCAAAGGGUAUGGUAAUAAGCUGACGGACAUGGUCCUAACCACGCAGCCAAGUCCUAAGUCAACAGAUCUUCUGUUGAUAUGGAUGCAGUUCACAGACUAAAUGUCGGUCGGGGAAGAUGUAUUCUUCUCAUAAGAUAUAGUCGGACCUCUCCUUAAUGGGAGCUAGCGGAUGAAGUGAUGCAACACUGGAGCCGCUGGGAACUAAUUUGUAUGCGAAAGUAUAUUGAUUAGUUUUGGAGUACUCGUGGUCG
Summary of the method: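 DiMSum derived fitness as the error-weighted combination of fold changes across replicates, kanamycin versus no kanamycin, normalised to wild type. E. coli BL21(DE3) held the library, which randomised all eight P1ex-region intron nucleotides within the knt kanamycin-resistance gene on pET-22b(+). Six replicate transformations grew overnight at 37°C or 30°C on LB agar with or without 25 μg/mL kanamycin, also containing 100 μg/mL carbenicillin, 50 μM IPTG and 0.2% rhamnose, and pooled colonies were amplicon-sequenced on an Illumina HiSeq 2500.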

CCGGAGCAAUAUUACGGACC
self-splicing fitness (ln) (30 °C): -2.12 ± 0.4
self-splicing fitness (ln) (37 °C): -1.64 ± 0.45

GGGCAGCAAUAUUACGAAUU
self-splicing fitness (ln) (30 °C): -0.318 ± 0.12
self-splicing fitness (ln) (37 °C): -0.166 ± 0.17

AGCAAGCAAUAUUACGACCU
self-splicing fitness (ln) (30 °C): 0.278 ± 0.082
self-splicing fitness (ln) (37 °C): 0.39 ± 0.11

GGGAAGCAAUAUUACGAGAA
self-splicing fitness (ln) (30 °C): -2.16 ± 0.48
self-splicing fitness (ln) (37 °C): -1.78 ± 0.36

ACGCAGCAAUAUUACGAACU
self-splicing fitness (ln) (30 °C): -0.619 ± 0.062
self-splicing fitness (ln) (37 °C): -0.501 ± 0.081

AUUUAGCAAUAUUACGCUAG
self-splicing fitness (ln) (30 °C): -0.961 ± 0.097
self-splicing fitness (ln) (37 °C): -0.937 ± 0.12

CAUGAGCAAUAUUACGAGAU
self-splicing fitness (ln) (30 °C): -4.03 ± 0.23
self-splicing fitness (ln) (37 °C): -1.82 ± 0.28

GACUAGCAAUAUUACGUUUA
self-splicing fitness (ln) (30 °C): -1.05 ± 0.094
self-splicing fitness (ln) (37 °C): -0.651 ± 0.11

CUUUAGCAAUAUUACGGAAC
self-splicing fitness (ln) (37 °C): -1.93 ± 0.48

UACAAGCAAUAUUACGGGAU
self-splicing fitness (ln) (30 °C): -3.65 ± 0.17
self-splicing fitness (ln) (37 °C): -1.39 ± 0.11

AAGCAGCAAUAUUACGGGAU
self-splicing fitness (ln) (30 °C): -3.63 ± 0.14
self-splicing fitness (ln) (37 °C): -1.92 ± 0.1

ACUCAGCAAUAUUACGAUCU
self-splicing fitness (ln) (30 °C): -0.0985 ± 0.064
self-splicing fitness (ln) (37 °C): 0.407 ± 0.08

CGCAAGCAAUAUUACGGUAA
self-splicing fitness (ln) (30 °C): -3.47 ± 0.16
self-splicing fitness (ln) (37 °C): -1.67 ± 0.1

GCAGAGCAAUAUUACGAGAU
self-splicing fitness (ln) (30 °C): -2.04 ± 0.29
self-splicing fitness (ln) (37 °C): -2.15 ± 0.39

AUUUAGCAAUAUUACGUCUA
self-splicing fitness (ln) (30 °C): -0.829 ± 0.15
self-splicing fitness (ln) (37 °C): 0.0394 ± 0.15

GCAUAGCAAUAUUACGGUGC
self-splicing fitness (ln) (30 °C): -3.71 ± 0.46

UUUGAGCAAUAUUACGGCAC
self-splicing fitness (ln) (30 °C): -2.87 ± 0.41
self-splicing fitness (ln) (37 °C): -2.56 ± 0.31

UCAGAGCAAUAUUACGACGC
self-splicing fitness (ln) (37 °C): -1.69 ± 0.4

CGGGAGCAAUAUUACGUGAG
self-splicing fitness (ln) (30 °C): -1.03 ± 0.11
self-splicing fitness (ln) (37 °C): -0.865 ± 0.11

GGGAAGCAAUAUUACGUGUU
self-splicing fitness (ln) (30 °C): -3.17 ± 0.21
self-splicing fitness (ln) (37 °C): -1.9 ± 0.16

UCAAAGCAAUAUUACGGGGC
self-splicing fitness (ln) (30 °C): -2.18 ± 0.16
self-splicing fitness (ln) (37 °C): -2.14 ± 0.19

CAGAAGCAAUAUUACGUCUU
self-splicing fitness (ln) (30 °C): -1.7 ± 0.089
self-splicing fitness (ln) (37 °C): -0.306 ± 0.11

GGGCAGCAAUAUUACGGUCA
self-splicing fitness (ln) (30 °C): 0.308 ± 0.069
self-splicing fitness (ln) (37 °C): 0.187 ± 0.083

UAUAAGCAAUAUUACGUCCU
self-splicing fitness (ln) (30 °C): -1.28 ± 0.11
self-splicing fitness (ln) (37 °C): 0.43 ± 0.14

CAAGAGCAAUAUUACGCAAG
self-splicing fitness (ln) (30 °C): -3.06 ± 0.17
self-splicing fitness (ln) (37 °C): -1.99 ± 0.17

AGCCAGCAAUAUUACGUACG
self-splicing fitness (ln) (30 °C): -3.04 ± 0.17
self-splicing fitness (ln) (37 °C): -2.65 ± 0.17

AGUAAGCAAUAUUACGCUAG
self-splicing fitness (ln) (30 °C): -2.83 ± 0.24
self-splicing fitness (ln) (37 °C): -2.39 ± 0.23

UACCAGCAAUAUUACGAGUG
self-splicing fitness (ln) (30 °C): -0.127 ± 0.052
self-splicing fitness (ln) (37 °C): -0.0711 ± 0.067

GCAGAGCAAUAUUACGAUGU
self-splicing fitness (ln) (30 °C): -4.4 ± 0.34
self-splicing fitness (ln) (37 °C): -2.42 ± 0.19

GUAUAGCAAUAUUACGGUAC
self-splicing fitness (ln) (37 °C): -2.25 ± 0.33

GAGAAGCAAUAUUACGAGGC
self-splicing fitness (ln) (30 °C): -3.35 ± 0.21
self-splicing fitness (ln) (37 °C): -1.78 ± 0.17

GAGGAGCAAUAUUACGCACG
self-splicing fitness (ln) (37 °C): -0.155 ± 0.47

GGGGAGCAAUAUUACGGUAG
self-splicing fitness (ln) (30 °C): -3.09 ± 0.27

ACGUAGCAAUAUUACGCCGG
self-splicing fitness (ln) (30 °C): -1.28 ± 0.11
self-splicing fitness (ln) (37 °C): -0.915 ± 0.17

UUUGAGCAAUAUUACGUUCC
self-splicing fitness (ln) (30 °C): -3.99 ± 0.39

CGAAAGCAAUAUUACGCAUA
self-splicing fitness (ln) (30 °C): -3.13 ± 0.25
self-splicing fitness (ln) (37 °C): -2.72 ± 0.2

UCUGAGCAAUAUUACGAGUC
self-splicing fitness (ln) (30 °C): -2.7 ± 0.41

GGCUAGCAAUAUUACGUUGA
self-splicing fitness (ln) (30 °C): -1.26 ± 0.13
self-splicing fitness (ln) (37 °C): 0.455 ± 0.14

CGUAAGCAAUAUUACGGCAG
self-splicing fitness (ln) (30 °C): -0.537 ± 0.091
self-splicing fitness (ln) (37 °C): -0.781 ± 0.095

UCAAAGCAAUAUUACGAUAG
self-splicing fitness (ln) (30 °C): -0.853 ± 0.11
self-splicing fitness (ln) (37 °C): -2.03 ± 0.15

AUAUAGCAAUAUUACGCAAU
self-splicing fitness (ln) (30 °C): -1.49 ± 0.17
self-splicing fitness (ln) (37 °C): -0.77 ± 0.22

UUCCAGCAAUAUUACGCUUC
self-splicing fitness (ln) (30 °C): -4.08 ± 0.24
self-splicing fitness (ln) (37 °C): -2.58 ± 0.18

AUCAAGCAAUAUUACGAUCU
self-splicing fitness (ln) (30 °C): -1.37 ± 0.1
self-splicing fitness (ln) (37 °C): -0.575 ± 0.12

ACCGAGCAAUAUUACGAGGA
self-splicing fitness (ln) (30 °C): -2.77 ± 0.21
self-splicing fitness (ln) (37 °C): -2.99 ± 0.38

CUAAAGCAAUAUUACGCUUU
self-splicing fitness (ln) (30 °C): -4.2 ± 0.33
self-splicing fitness (ln) (37 °C): -2.35 ± 0.29

UCACAGCAAUAUUACGGCUC
self-splicing fitness (ln) (30 °C): -2.9 ± 0.22
self-splicing fitness (ln) (37 °C): -1.87 ± 0.21

UCUCAGCAAUAUUACGAUUC
self-splicing fitness (ln) (30 °C): -2.66 ± 0.28
self-splicing fitness (ln) (37 °C): -1.94 ± 0.27

ACCCAGCAAUAUUACGAGGA
self-splicing fitness (ln) (30 °C): -0.706 ± 0.068
self-splicing fitness (ln) (37 °C): -1.08 ± 0.077

ACUAAGCAAUAUUACGCUAA
self-splicing fitness (ln) (30 °C): -3.83 ± 0.43
self-splicing fitness (ln) (37 °C): -1.92 ± 0.38

GCUAAGCAAUAUUACGAGCG
self-splicing fitness (ln) (30 °C): -1.7 ± 0.11
self-splicing fitness (ln) (37 °C): -0.246 ± 0.12
